Consider one protein from paper doi:10.1101/2024.07.11.603087, “Rational Design of a Flavoenzyme for Aerobic Nicotine Catabolism” (bioRxiv, 2024).

The series concerns the molecule itself. Briefly: SEC; Superdex 200 Increase 10/300 GL; molecular weight from elution, consistent with two molecules.

B1: PnaoΔN30 (residues 31 to 497) (enzyme, Pseudomonas putida S16, UniProt F8G0P1 31-496, looked up)
chain: IASQLLTLSAPAEAAVKTNVGPSRAGVGYDVIVIGGGFAGVTAAREASRSGLKTLILEGRSRLGGRTFTSKLQNQKVELGGTWVHWTQPNVWTEIMHYGLEVEETVGLANPETVIWVTEDNVKRAPAAEAFEIFGSACNEYYKEARNIYPRPFEPFFERKKLQHVDGLSAADYLEKLPLTREQKDMMDSWLSGNGHNYPETIAYSEIMRWFALSNFNMPTMFDSIARYKIKTGTHSLLEAIMADGNSEVKLSTPVTKVNQDKDKVTVTTEDGVFTASAVIVAVPINTLHDIEYSPKLSAAKVDMGSQRHAGAGVKGYIRVKQNVGNVMTYAPARNKLTPFTSVFTDHVDESGTLLIAFSADPKLIDINDIKAVEKALQPLLPGVEVTASYGYDWNLDPFSKGTWCTYRPNQTTRYLTELQKREGRLFFAGSDMANGWRGFIDGAIENGREVGHQVATYLKRENDNA
notes: Pnao, flavin-dependent pseudooxynicotine oxidase of Pseudomonas putida S16, N-terminal truncation of 30 residues, residues 31 to 497; Cloned into pET-28a between NcoI and XhoI, which would likely give a C-terminal His6 tag (surmised); also called pseudooxynicotine amine oxidase; source: E. coli BL21(DE3), purified (Ni2+-NTA, size-exclusion chromatography)
For the protein B1, the “stoichiometry N” value worked out at 2.
